Target: Methanocaldococcus jannaschii SufB* (N-terminal His6 tagged) (Methanocaldococcus jannaschii)
Assay: pull-down

stoichiometry N: 1
Substance: Methanocaldococcus jannaschii SufC (untagged) (natural protein)

— article doi:10.1101/2024.03.20.586028
